Patent US20200262920A1 (AMPHIVENA THERAPEUTICS, published 2020)
Substitutions are numbered along the chain they refer to.

B1: CD33/CD3 2×2 T-cell engager 10 (bispecific antibody)
chain: DIQMTQSPSSLSASVGDRVTITCRSSTGAVTTSNYANWVQQKPGKAPKGLIGGTNKRAPGVPSRFSGSLIGDKATLTISSLQPEDFATYYCALWYSNLWVFGQGTKVEIKGGSGGSQVQLVQSGAEVKKPGASVKVSCKASGYTFTSYDINWVRQAPGQGLEWMGWMNPNSGNTGFAQKFQGRVTMTRDTSTSTVYMELSSLRSEDTAVYYCARDRANTDYSFGMDVWGQGTLVTVSSGGSGQSVLTQPPSASGTPGQRVTISCSGSRSNIGSNTVNWYQQLPGTAPKLLIYGNNQRPSGVPDRFSGSKSGTSASLAISGLQSEDEADYYCATWDDSLIGWVFGGGTKLTVLGGSGGSEVQLVESGGGLVQPGGSLRLSCAASGFTFSTYAMNWVRQAPGKGLEWVGRIRSKYNNYATYYADSVKDRFTISRDDSKNSLYLQMNSLKTEDTAVYYCARHGNFGNSYVSWFAYWGQGTLVTVSSAAAGSHHHHHH
notes: Non-covalent homodimer
B2: CD33/CD3 2×2 T-cell engager 15 (bispecific antibody)
chain: B1 chain with G49A, W469Y
notes: Non-covalent homodimer
B3: CD33/CD3 2×2 T-cell engager 01 (bispecific antibody)
chain: B1 chain with S63A, L69G, I70S, D72T, K73D, A74F, Y221F, F223Y
notes: Non-covalent homodimer; also called 2×2 T-cell engager 1
B4: CD33/CD3 2×2 T-cell engager 11 (bispecific antibody)
chain: B1 chain with F223L
notes: Non-covalent homodimer
B5: CD33/CD3 2×2 T-cell engager 09 (bispecific antibody)
chain: B1 chain with Y221F, F223Y
notes: Non-covalent homodimer; also called 2×2 T-cell engager 9
B6: CD33/CD3 2×2 T-cell engager 04 (bispecific antibody)
chain: B1 chain with S63A, L69G, I70S, D72T, K73D, A74F, F223L
notes: Non-covalent homodimer; also called 2×2 T-cell engager 4
B7: CD33/CD3 2×2 T-cell engager 02 (bispecific antibody)
chain: B1 chain with S63A, L69G, I70S, D72T, K73D, A74F, N218V, S222Y, F223Y
notes: Non-covalent homodimer; also called 2×2 T-cell engager 2
B8: CD33/CD3 2×2 T-cell engager 13 (bispecific antibody)
chain: B1 chain with D72T, K73D, A74F, N218V, S222Y, F223Y
notes: Non-covalent homodimer
B9: CD33/CD3 2×2 T-cell engager 03 (bispecific antibody)
chain: B1 chain with S63A, L69G, I70S, D72T, K73D, A74F
notes: Non-covalent homodimer; also called 2×2 T-cell engager 3
B10: CD33/CD3 2×2 T-cell engager 05 (bispecific antibody)
chain: DIQMTQSPSSLSASVGDRVTITCRSSTGAVTTSNYANWVQQKPGKAPKGLIGGTNKRAPGVPARFSGSGSGTDFTLTISSLQPEDFATYYCALWYSNLWVFGQGTKVEIKGGSGGSQVQLVQSGAEVKKPGASVKVSCKASGYTFTSYDINWVRQAPGQGLEWMGWMNPNSGNTGFAQKFQGRVTMTRDTSTSTVYMELSSLRSEDTAVYYCARDRANTDYSFGMDVWGQGTLVTVSSGGSGGQSVLTQPPSASGTPGQRVTISCSGSRSNIGSNTVNWYQQLPGTAPKLLIYGNNQRPSGVPDRFSGSKSGTSASLAISGLQSEDEADYYCATWDDSLIGWVFGGGTKLTVLGGSGGSEVQLVESGGGLVQPGGSLRLSCAASGFTFSTYAMNWVRQAPGKGLEWVGRIRSKYNNYATYYADSVKDRFTISRDDSKNSLYLQMNSLKTEDTAVYYCARHGNFGNSYVSWFAYWGQGTLVTVSSAAAGSHHHHHH
notes: Non-covalent homodimer; also called 2×2 T-cell engager 5
B11: CD33/CD3 2×2 T-cell engager 06 (bispecific antibody)
chain: B10 chain with F223L
notes: Non-covalent homodimer; also called 2×2 T-cell engager 6
B12: CD33/CD3 2×2 T-cell engager 24 (bispecific antibody)
chain: DIQMTQSPSSLSASVGDRVTITCRSSTGAVTTSNYANWVQQKPGKAPKALIGGTNKRAPGVPSRFSGSLIGDKATLTISSLQPEDFATYYCALWYSNLWVFGQGTKVEIKGGSGGSQVQLVQSGAEVKKPGSSVKVSCKASGGTFDSYAISWVRQAPGQGLEWMGGIIPIFGSAHYSQKFQGRVTITADESTSTAYMELSSLRSEDTAVYYCAREYYYDSSEWAFDIWGQGTLVTVSSGGSGQSVLTQPPSASGTPGQRVTISCSGSSSNIGDNVVNWYQQLPGTAPKLLIYSTNKRPSGVPDRFSGSKSGSSASLAISGLQSEDEADYYCAAWDDSLSAYVFGGGTKLTVLGGSGGSEVQLVESGGGLVQPGGSLRLSCAASGFTFSTYAMNWVRQAPGKGLEWVGRIRSKYNNYATYYADSVKDRFTISRDDSKNSLYLQMNSLKTEDTAVYYCARHGNFGNSYVSYFAYWGQGTLVTVSSAAAGSHHHHHH
notes: Non-covalent homodimer
B13: CD33/CD3 2×2 T-cell engager 08 (bispecific antibody)
chain: QSVLTQPPSASGTPGQRVTISCSGSRSNIGSNTVNWYQQLPGTAPKLLIYGNNQRPSGVPDRFSGSKSGTSASLAISGLQSEDEADYYCATWDDSLIGWVFGGGTKLTVLGGSGGSEVQLVESGGGLVQPGGSLRLSCAASGFTFSTYAMNWVRQAPGKGLEWVGRIRSKYNNYATYYADSVKDRFTISRDDSKNSLYLQMNSLKTEDTAVYYCARHGNFGNSYVSYFAYWGQGTLVTVSSGGSGGSDIQMTQSPSSLSASVGDRVTITCRSSTGAVTTSNYANWVQQKPGKAPKALIGGTNKRAPGVPSRFSGSLIGDKATLTISSLQPEDFATYYCALWYSNLWVFGQGTKVEIKGGSGGSQVQLVQSGAEVKKPGASVKVSCKASGYTFTSYDINWVRQAPGQGLEWMGWMNPNSGNTGFAQKFQGRVTMTRDTSTSTVYMELSSLRSEDTAVYYCARDRANTDFSYGMDVWGQGTLVTVSSAAAGSHHHHHH
notes: Non-covalent homodimer; also called 2×2 T-cell engager 8

Legend:
human CD33 [1] = target: T1, human CD33 (human, UniProt P20138 18-364); assay: flow cytometry titration, KG-1 cells
T1 construct: whole, on cells; also called huCD33; CD33 on HL-60, KG-1, KG-1a, U-937 cells
Description: (§1) Cells were incubated with 100 μL of serial dilutions of CD33/CD3 2×2 T-cell engagers. After washing three times with FACS buffer the cells were incubated with 0.1 mL of 10 μg/mL mouse monoclonal anti-His antibody in the same buffer for 45 min on ice. After a second washing cycle, the cells were incubated with 0.1 mL of 15 μg/mL FITC-conjugated goat anti-mouse IgG antibodies under the same conditions as before. As a control, cells were incubated with the anti-His IgG followed by the FITC-conjugated goat anti-mouse IgG antibodies without anti-CD33 2×2 T-cell engagers. The cells were then washed again and resuspended in 0.2 mL of FACS buffer containing 2 μg/mL propidium iodide (PI) in order to exclude dead cells. The fluorescence of 1×10⁴ living cells was measured using a Beckman-Coulter FC500 MPL flow cytometer using the MXP software (Beckman-Coulter, Krefeld, Germany) or a Millipore Guava EasyCyte flow cytometer using the Incyte software (Merck Millipore, Schwalbach, Germany). Mean fluorescence intensities of the cell samples were calculated using CXP software (Beckman-Coulter, Krefeld, Germany) or Incyte software (Merck Millipore, Schwalbach, Germany). After subtracting the fluorescence intensity values of the cells stained with the secondary and tertiary reagents alone the values were used for calculation of the KD values with the equation for one-site binding (hyperbola) of the GraphPad Prism (version 6.00 for Windows, GraphPad Software, La Jolla Calif. USA). […]

human CD33 [2] = target: T1, human CD33; assay: flow cytometry titration, U-937 cells
Description: as §1

human CD3 [3] = target: T2, human CD3 (human, UniProt P07766 23-207; P09693 23-182; P04234 22-171; P20963 22-164); assay: flow cytometry, human T-cells
T2 construct: whole, on cells; the description names the epsilon chain only 'in certain instances'; also called hu CD3; CD3 on T cells

human CD33 [4] = target: T1, human CD33; assay: cell-based or functional assay
human CD3 [5] = target: T2, human CD3; assay: cell-based or functional assay
human CD33 [6] = target: T1, human CD33; assay: flow cytometry titration, HL-60 cells
Description: as §1

human CD33 [7] = target: T1, human CD33; assay: flow cytometry, HL-60 cells
human CD3 [8] = target: T2, human CD3; assay: flow cytometry titration, T cells (human CD3+)

T2 sequence (P07766 23-207, chain 1 of 4): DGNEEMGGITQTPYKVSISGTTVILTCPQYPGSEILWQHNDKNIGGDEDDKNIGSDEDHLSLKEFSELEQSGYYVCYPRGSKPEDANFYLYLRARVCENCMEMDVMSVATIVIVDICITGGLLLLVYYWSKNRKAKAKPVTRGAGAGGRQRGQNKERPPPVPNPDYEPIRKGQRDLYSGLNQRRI
T2 sequence (P09693 23-182, chain 2 of 4): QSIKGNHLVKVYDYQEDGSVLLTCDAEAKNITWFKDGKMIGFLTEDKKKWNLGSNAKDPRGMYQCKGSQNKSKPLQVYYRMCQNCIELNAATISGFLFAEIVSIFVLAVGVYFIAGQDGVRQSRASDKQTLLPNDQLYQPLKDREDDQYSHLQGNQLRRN
T2 sequence (P04234 22-171, chain 3 of 4): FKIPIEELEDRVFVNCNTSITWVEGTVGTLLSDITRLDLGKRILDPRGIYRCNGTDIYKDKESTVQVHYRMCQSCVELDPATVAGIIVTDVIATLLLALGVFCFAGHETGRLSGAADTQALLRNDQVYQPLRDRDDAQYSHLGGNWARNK
T2 sequence (P20963 22-164, chain 4 of 4): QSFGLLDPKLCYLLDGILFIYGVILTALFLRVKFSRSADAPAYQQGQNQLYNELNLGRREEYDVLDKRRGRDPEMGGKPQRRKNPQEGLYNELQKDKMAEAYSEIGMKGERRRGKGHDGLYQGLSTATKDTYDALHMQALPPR
T1 sequence (P20138 18-364): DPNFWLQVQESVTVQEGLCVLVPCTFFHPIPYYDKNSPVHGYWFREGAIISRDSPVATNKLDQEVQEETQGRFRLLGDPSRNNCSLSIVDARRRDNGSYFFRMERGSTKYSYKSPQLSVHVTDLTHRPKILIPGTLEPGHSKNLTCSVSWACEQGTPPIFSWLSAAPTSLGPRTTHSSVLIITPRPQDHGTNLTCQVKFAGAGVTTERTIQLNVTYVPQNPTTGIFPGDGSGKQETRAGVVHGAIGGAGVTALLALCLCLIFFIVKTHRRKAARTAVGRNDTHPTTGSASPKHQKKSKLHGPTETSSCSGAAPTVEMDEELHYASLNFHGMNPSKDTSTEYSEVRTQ

Binder | Kd (human CD33 [1]) [nM] | Kd (human CD33 [2]) [nM] | Kd (human CD3 [3]) [nM] | EC50 on HL-60 (cytotoxicity) (human CD33 [4]) [pM] | CD25 Induction EC50 (human CD3 [5]) [pM] | CD69 Induction EC50 (human CD3 [5]) [pM] | T cell Proliferation in PBMC EC50 (human CD3 [5]) [pM] | Kd (human CD33 [6]) [nM] | Kd (human CD33 [7]) [nM] | Kd (human CD3 [8]) [nM]
B1 | 1 | 1.7 | 1.9 | 7 | 10 | 6 | 6 | 0.5 | 0.5 | 1.9
B2 | 0.3 | 0.9 | 1.3 | 1.8 | 6 | 7 | 7 | 0.4 | 0.4 | 1.3
B3 | 0.9 | 7.1 | 94.2 | 1.9 | 92 | 91 | 89 | 0.6 | 0.6 | 94.2
B4 | 0.5 | 0.6 | 2.6 | 5.9 | 11 | 5 | 6 | 0.3 | 0.3 | 2.6
B5 | 0.3 | 2.2 | 2.4 | 6.8 | 11 | 7 | 9 | 0.5 | 0.5 | 2.4
B6 | 0.5 | 1.7 | 79.3 | 1.8 | 94 | 62 | 44 | 0.5 | 0.5 | 79.3
B7 | 0.3 | 0.9 | 69.8 | 0.5 | 42 | 27 | 4 | 0.2 | 0.2 | 69.8
B8 | 0.3 | 0.5 | 55.7 | 1.1 | 30 | 22 | 23 | 0.2 | 0.2 | 55.7
B9 | 1.8 | 8.9 | 81.9 | 3.6 | 117 | 87 | 63 | 1.1 | 1.1 | 81.9
B10 | 1.2 | 6.2 | 69.5 | 2.7 | 116 | 74 | 74 | 1 | 1 | 69.5
B11 | 0.5 | 1.6 | 86.3 | 1.6 | 39 | 21 | 48 | 0.4 | 0.4 | 86.3
B12 | 12.4 | 39.5 | 2.3 | 9.6 |  | 57 | 264 | 5.6 | 5.6 | 2.3
B13 | 0.5 | 1.8 |  | 1.8 |  |  |  | 0.3 |  | 2.4
